Results on four substances are retold here after patent US20080248008A1, “Inhibitors of Protein Kinase a Anchoring” (priority 2004, published 2008).

Entries after “also recorded” stand apart in the source; their conditions may differ. Ends that are not written are not given here.

For one experiment, the target named is T1, RI (A98S) (Bos taurus, UniProt P00514, A98S).
T1 construct: made in house; host or cells: E. coli BL21 (B121 [sic])
Description: R-overlay (solid-phase binding) of 32P-labelled RI on membrane-synthesized peptides. To be noted: for RI binding (RI-32P-overlay, autoradiography): peptides on membrane, qualitative. Further details: species or system bovine. The method, then: Autospot Peptide Array. Peptide arrays were synthesized on cellulose paper by using an Autospot Robot ASP222 (ABiMED, Langenfeld, Germany) as described (Frank, R., 1992, Tetrahedron 48, 123-132) or Multipep automated peptide synthesizer (INTAVIS Bioanalytical Instruments AG, Koeln, Germany) as described (Frank, R., 1992, Tetrahedron 48, 123-132).
R-overlay. R-overlays were conducted as described, using ^32P-labeled recombinant murine RII (Hausken, Z. E., et al., 1998 in Protein Targeting Protocols, ed. Clegg, R. A. (Humana, Totowa, N.J.), Vol. 88, pp. 47-64) or recombinant bovine RI (A98S) or by cold RI-overlay where bound RIα was detected by Western blot. Cold RI-overlay was performed by incubating the membranes with 250 nM RI overnight at 4° C., then the membranes were washed five times in TBST for 5 min. Detection of RI was performed using an anti-RI rabbit polyclonal antibody (Santa Cruz) at a concentration of 0.2 μg/μl for 1 hour at 4° C. Then the membranes were washed five times for 5 minutes in PBS followed by incubation with HRP-conjugated anti-rabbit IgGs (1:5000) for 1 hour at 4° C. The membranes were washed in PBS as described above before detection by Supersignal West Dura Extended Duration Substrate (Pierce).
Densitometric analysis. The densitometric analysis was performed using Scion Image (www.scioncorp.com) (Scion Coorperation, Mo., USA) or Quantity One version 4.5.0, (BioRad).

For experiment [1], the target named is T2, PKA-RIIα (Homo sapiens, UniProt P13861). Description: Displacement of PKA-RII from the particulate fraction in T cells. Format: cell-based. Further details: endogenous in cells; host or cells: human peripheral blood CD3+ T cells. As to conditions: 25 μM or 50 μM. As to the method:
Displacement of PKA-RII from the particulate Fraction in T-cells. Negatively selected CD3^+ T-cells (20×10^6/3 ml/well) were cultured in 6-well plates with 0-50 μM Arg11-SuperAKAPIS (or 0-50 μM M3-Arg11) for 12 hours. Cells were lysed in 250 μl lysis buffer (50 mM Tris pH 7.4, 100 mM NaCl, 5 mM EDTA, 50 mM NaF, 10 mM Na-pyrofosfat, 1 mM Na3VO4, 1 mM PMSF, 0.7% triton X-100) and centrifuged at 14 000×g for 10 min. The sedimented proteins were resuspended in loading dye before being resolved by SDS/PAGE and detected by immunoblotting.
To assess the effect of MEME3-Arg11 on anchoring of PKA type II, T cells were treated with MEME3-Arg11 or Arg11-super-AKAP-is (as a positive control) and particulate fractions were isolated, followed by 10% PAGE and blotting onto a PVDF membrane (fraction no. 2-4, FIG. 17 in upper panel) and analysed by immunoblotting using antibodies against PKA-RIIα (FIG. 17, upper panel). The levels of PKA-RIIα in the particulate fractions were measured by densitometry of the autoradiograms (lower panel). The level of PKA-RIIα was set relative to that of the internal standard PKCα.

Experiment [2] concerns the target T2, PKA-RIIα. Description: Immunofluorescence of PKA-RIIα at centrosomes in human T cells. Format: cell-based. Further details: endogenous in cells; host or cells: human peripheral blood CD3+ T cells. As to conditions: human peripheral blood T cells. The method, then: Blots were developed by using Supersignal West Pico substrate (Pierce). For immunofluorescence polyclonal and monoclonal antibodies against RIα (Biogenesis), RIIα (Transduction laboratories) and AKAP450 (A24, Tasken et al., 2001, J. Biol. Chem, 276:21999-22002) were used as primary antibodies. Secondary antibodies (all Molecular Probes) were Alexa-488 conjugated anti-mouse and anti-rabbit IgG (both goat) and Alexa-555 anti-rabbit IgG (goat).
Immunofluorescence analysis of cells was performed as previously described (Collas, P. et al., 1996, J. Cell Biol. 135, 1715-1725). RI was detected by using an anti-RI monoclonal antibody (Transduction Laboratories) as a primary antibody at a […] and Alexa-488 as a secondary antibody (1:600, Goat anti Mouse IgGs, Molecular Probes). Immunofluorescence was performed on Y1 cells attached to collagen/fibronectin coated coverslips. Mitochondria were stained using MitoTracker Red CMXRos (Molecular Probes) in fresh medium with incubation at 37° C. for 30 min prior to cell fixation. All cells were washed in PBS, fixed with 3% paraformaldehyde and permeabilised using 0.1% Triton X-100. […] Alternatively, fluorescently labeled cells were examined using a Leica TCS SP1 confocal fluorescence microscope (Leica, Heidelberg, Germany) equipped with an Ar (488 nm) and two He/Ne (543 and 633 nm) laser lines. […]

T1 sequence (P00514 whole entry A98S): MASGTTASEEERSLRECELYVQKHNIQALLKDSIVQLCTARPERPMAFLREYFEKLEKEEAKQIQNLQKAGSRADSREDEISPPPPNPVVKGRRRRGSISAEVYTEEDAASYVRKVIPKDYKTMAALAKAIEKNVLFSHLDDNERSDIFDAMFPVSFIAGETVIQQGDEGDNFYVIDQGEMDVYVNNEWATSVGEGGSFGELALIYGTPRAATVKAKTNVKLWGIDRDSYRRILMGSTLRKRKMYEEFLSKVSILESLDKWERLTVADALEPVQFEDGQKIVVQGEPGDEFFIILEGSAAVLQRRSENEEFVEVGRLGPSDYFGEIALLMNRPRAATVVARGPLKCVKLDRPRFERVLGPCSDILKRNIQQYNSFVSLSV
T2 sequence (P13861 whole entry): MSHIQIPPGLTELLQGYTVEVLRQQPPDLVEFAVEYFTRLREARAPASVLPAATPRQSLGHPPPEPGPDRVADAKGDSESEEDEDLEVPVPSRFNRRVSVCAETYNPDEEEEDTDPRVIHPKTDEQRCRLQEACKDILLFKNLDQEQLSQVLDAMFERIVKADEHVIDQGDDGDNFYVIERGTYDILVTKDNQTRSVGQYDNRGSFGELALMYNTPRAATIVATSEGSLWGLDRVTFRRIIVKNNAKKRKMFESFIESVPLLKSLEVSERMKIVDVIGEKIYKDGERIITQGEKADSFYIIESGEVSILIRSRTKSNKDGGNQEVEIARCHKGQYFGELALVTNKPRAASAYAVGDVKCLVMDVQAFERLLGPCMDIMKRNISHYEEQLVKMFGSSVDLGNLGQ

As to LEQYANQLADQIIKEATe [E18e], at RI (A98S) (peptidomimetics on membrane), the “R-binding of D-amino acid derivatives (RIα and RIIα overlay)” value is listed as “accepted”.
Regarding “Arg11-super-AKAP-is: RIIα specific peptide, SuperAKAPIS (QIEYVAKQIVDYAIHQA) with eleven arginine residues (also: eleven arginine residues attached (Arg11), place not given here) [reference compound]”, the “reduction of PKA-RIIα in particulate fraction” value with PKA-RIIα [1] is listed as “approximately 80%”. For the same substance, in the experiment with PKA-RIIα [2], the “displacement of PKA-RIIα from centrosomes” value is reported as “specifically displaced PKA-RIIα”.
Take LKQYANQLASQVIKEATE [PDSM]: the “RI binding (RI-32P-overlay, autoradiography)” value with RI (A98S) is “same RI binding affinity as the full length PDSM sequence; also recorded: much higher RIα affinity compare to that of PV-38; also recorded: higher binding to RIα”.
On to “DELKQYANQLASQVIKEATE [PDSM consensus sequence]”, for which, in the experiment with RI (A98S), the “RI binding (RI-32P-overlay, autoradiography)” value is reported as “higher affinity for RI than the other R-binding motifs”.
